Results taken from US20260317448 (published 2026).

T1: germ cell alkaline phosphatase (human, UniProt P10696)
T1 chain: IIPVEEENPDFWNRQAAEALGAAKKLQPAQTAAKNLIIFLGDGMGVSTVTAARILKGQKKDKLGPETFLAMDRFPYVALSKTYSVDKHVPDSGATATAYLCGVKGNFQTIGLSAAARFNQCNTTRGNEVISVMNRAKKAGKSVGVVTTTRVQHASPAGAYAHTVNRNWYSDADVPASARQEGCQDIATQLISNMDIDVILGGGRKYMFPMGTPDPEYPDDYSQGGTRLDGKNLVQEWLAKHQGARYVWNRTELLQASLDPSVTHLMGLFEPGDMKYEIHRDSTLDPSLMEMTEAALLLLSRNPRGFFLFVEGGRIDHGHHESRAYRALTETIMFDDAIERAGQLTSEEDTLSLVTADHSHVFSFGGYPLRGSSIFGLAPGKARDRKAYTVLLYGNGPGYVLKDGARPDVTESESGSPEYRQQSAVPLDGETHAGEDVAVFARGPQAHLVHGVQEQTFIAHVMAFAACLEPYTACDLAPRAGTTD

T2: tissue-nonspecific alkaline phosphatase (human, UniProt P05186)
T2 chain: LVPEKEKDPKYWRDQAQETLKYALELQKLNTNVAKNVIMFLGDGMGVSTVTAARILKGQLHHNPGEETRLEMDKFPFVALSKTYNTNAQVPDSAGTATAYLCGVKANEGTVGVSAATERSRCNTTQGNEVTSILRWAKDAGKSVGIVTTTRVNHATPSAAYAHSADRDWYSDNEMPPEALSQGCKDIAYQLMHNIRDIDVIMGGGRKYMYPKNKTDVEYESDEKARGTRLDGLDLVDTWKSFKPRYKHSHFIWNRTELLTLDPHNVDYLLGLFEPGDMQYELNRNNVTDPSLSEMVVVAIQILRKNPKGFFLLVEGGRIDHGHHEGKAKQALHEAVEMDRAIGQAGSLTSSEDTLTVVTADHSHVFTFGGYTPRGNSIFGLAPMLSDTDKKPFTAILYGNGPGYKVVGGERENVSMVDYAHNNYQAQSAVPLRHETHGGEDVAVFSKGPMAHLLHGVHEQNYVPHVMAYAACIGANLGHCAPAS

T3: placental alkaline phosphatase (human, UniProt P05187)
T3 chain: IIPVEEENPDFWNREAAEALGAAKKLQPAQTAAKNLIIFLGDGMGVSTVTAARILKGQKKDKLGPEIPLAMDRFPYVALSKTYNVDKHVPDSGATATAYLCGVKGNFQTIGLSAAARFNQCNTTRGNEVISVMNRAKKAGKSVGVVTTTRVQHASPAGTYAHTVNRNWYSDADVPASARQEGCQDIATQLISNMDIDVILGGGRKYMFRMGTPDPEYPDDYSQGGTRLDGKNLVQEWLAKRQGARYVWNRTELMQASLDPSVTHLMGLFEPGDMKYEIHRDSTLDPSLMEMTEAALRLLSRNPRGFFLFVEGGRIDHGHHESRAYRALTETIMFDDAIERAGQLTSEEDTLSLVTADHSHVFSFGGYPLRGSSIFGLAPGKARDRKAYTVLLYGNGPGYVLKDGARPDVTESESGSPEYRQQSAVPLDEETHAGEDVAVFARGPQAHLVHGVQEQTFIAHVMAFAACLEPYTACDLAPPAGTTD

T4: 2-hsALPI peptide (human, intestinal alkaline phosphatase aa234-250)
T4 chain: PEYPADASQNGIRLDGK

T5: 6-hsALPI peptide (human, intestinal alkaline phosphatase aa416-438)
T5 chain: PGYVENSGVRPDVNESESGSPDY


Tests used:
[1] = molecular target: T1, germ cell alkaline phosphatase; assay: other, western blot
[2] = molecular target: T2, tissue-nonspecific alkaline phosphatase; assay: other, western blot
[3] = molecular target: T3, placental alkaline phosphatase; assay: other, western blot
2-hsALPI peptide = molecular target: T4, 2-hsALPI peptide; assay: ELISA
6-hsALPI peptide = molecular target: T5, 6-hsALPI peptide; assay: ELISA

binding result [1]	binding result [2]	binding result [3]	Kd (2-hsALPI peptide)	Kd (6-hsALPI peptide)	Binder
no binding	no binding	no binding	0.00711 nM		CDI005E8 (antibody, V domains shown) VH: CQSLEESGGGLVQPGASLTLTCTASGFSFTNNYWIYWVRQAPGKGLEWIGSVIISSSSAYYASWAKGRFTITKPSSTTVTLQVTSLTAADTATYFCVTGGILWGPGTLVTVSS VL: MDTRAPTQLLGLLLLWLPGARCDVVMTQTPASVEAAVGGTVTIKCQASQSIGTALAWYQQKPGQPPKRLIYKASTLTSGVPSRFKGSGSGTDFTLTISDLECADAATYYCQCTVDDSSSGSSYGNAFGGGTEVVVRG
			0.021 nM	0.2 nM	CDI022E3 (antibody, V domains shown) VH: CQSLEESGGRLVTPGTPLTLTCTVSGIDLSTYAMGWVRQAPGEGLEWIGTIGVSGSTYYASWAKGRFTISKTSTTVDLKMTSPATEDTATYFCARGSVWGPGTLVTVSL VL: AQVLTQTPASVEAAVGGTVTIKCQASQSISTWLAWYQQKPGQAPKRLIYSASTLASGVSSRFKGSGSGTEFTLTISDLECADAATYYCRCSYGKSYGEAFGGGTEVVVKG
